Results reported in patent US8461305B2, “L-fucose α1→6 specific lectin” (J-Oil Mills, Inc., priority 2008, dated 2013).

What was measured:
[1] = biological target: Aleuria aurantia lectin (AAL) of Comparison Example 1 (Aleuria aurantia) (UniProt P18891); assay: hemagglutination inhibition; glycoprotein titrated against lectin at titer 4
[2] = biological target: Aspergillus oryzae lectin (AOL) of Comparison Example 2 (Aspergillus oryzae); assay: as above
[3] = biological target: α-fetoprotein-L3 (prepared from the culture supernatant of human liver cancer cells) (human) (UniProt P02771); assay: ELISA, α-fetoprotein-L3 coated at 0.01 µg/ml, biotin-labeled lectin
Sequence of α-fetoprotein-L3 (prepared from the culture supernatant of human liver cancer cells) (human) (P02771 19-609 limits assumed): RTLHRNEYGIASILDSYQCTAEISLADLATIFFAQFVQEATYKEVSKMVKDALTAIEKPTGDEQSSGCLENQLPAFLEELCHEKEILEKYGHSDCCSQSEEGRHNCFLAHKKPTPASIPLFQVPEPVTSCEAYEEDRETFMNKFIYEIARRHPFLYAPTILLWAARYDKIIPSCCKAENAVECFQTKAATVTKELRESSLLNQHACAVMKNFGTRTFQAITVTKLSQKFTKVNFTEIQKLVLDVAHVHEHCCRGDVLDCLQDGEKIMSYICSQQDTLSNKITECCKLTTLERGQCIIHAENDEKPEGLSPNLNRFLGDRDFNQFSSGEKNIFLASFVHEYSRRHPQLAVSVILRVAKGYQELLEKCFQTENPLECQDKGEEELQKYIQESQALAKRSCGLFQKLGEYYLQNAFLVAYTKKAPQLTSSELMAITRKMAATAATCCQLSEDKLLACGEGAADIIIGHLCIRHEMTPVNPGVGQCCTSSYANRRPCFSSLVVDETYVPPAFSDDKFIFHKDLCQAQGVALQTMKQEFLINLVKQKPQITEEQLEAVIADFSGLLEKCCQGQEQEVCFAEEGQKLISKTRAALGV

[4] = biological target: α-fetoprotein (derived from human umbilical cord blood serum, mainly L1-type sugar chain) (human) (UniProt P02771); assay: ELISA, α-fetoprotein coated at 0.01 µg/ml, biotin-labeled lectin
Sequence of α-fetoprotein (derived from human umbilical cord blood serum, mainly L1-type sugar chain) (human) (P02771 19-609 limits assumed): as above

[5] = biological target: Pisum sativum agglutinin (PSA) of Comparison Example 4 (Pisum sativum) (UniProt P02867); assay: hemagglutination inhibition; glycoprotein titrated against lectin at titer 4
Sequence of Pisum sativum agglutinin (PSA) of Comparison Example 4 (Pisum sativum) (P02867 31-275 limits assumed): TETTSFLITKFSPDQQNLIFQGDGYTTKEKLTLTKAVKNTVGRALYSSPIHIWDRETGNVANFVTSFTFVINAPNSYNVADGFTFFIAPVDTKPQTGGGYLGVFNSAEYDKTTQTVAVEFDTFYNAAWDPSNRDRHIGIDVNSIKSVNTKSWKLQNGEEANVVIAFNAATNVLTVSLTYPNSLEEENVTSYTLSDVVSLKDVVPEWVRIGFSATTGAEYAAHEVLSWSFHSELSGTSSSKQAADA

[6] = biological target: Stropharia rugosoannulata lectin (SRL) of Example 2 (Stropharia rugosoannulata); assay: as above
[7] = biological target: Pholiota terrestris lectin (PTL) of Example 1 (Pholiota terrestris); assay: as above
[8] = biological target: Lens culinaris agglutinin (LCA) of Comparison Example 3 (Lens culinaris) (UniProt P02870); assay: as above
Lactoferrin (bovine) = Lactoferrin (bovine) (bovine, UniProt P24627 20-708, L-fucose α1→6 N-linked glycans); assay: Western blotting, glycoprotein on PVDF stained with biotin-labeled lectin; ◯ = Detected
Sequence of Lactoferrin (bovine) (P24627 20-708 limits assumed): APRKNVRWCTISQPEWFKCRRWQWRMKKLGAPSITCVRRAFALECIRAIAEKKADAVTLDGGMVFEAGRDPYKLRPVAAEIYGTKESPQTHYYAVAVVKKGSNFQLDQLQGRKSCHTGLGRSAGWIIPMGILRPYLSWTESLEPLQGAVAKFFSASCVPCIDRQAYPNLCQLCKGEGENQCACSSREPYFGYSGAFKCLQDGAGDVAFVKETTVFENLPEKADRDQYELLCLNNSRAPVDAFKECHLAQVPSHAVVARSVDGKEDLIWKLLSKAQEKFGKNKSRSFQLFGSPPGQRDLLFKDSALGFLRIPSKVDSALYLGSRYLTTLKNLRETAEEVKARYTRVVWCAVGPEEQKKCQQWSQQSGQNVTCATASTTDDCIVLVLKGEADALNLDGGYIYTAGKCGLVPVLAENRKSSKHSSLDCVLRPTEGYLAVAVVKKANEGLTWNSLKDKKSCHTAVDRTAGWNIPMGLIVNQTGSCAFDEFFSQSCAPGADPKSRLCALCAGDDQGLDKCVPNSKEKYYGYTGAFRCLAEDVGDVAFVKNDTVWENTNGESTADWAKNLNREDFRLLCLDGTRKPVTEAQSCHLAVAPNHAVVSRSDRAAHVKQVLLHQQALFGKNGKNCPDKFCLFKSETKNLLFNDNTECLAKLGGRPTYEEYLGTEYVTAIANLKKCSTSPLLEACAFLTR
Procedure: (§1) The film was immersed in 10 mM Tris buffer solution including 0.8% NaCl added with 1% BSA (pH 7.4, 1% BSA+TBS) and was shaken at a room temperature for one hour. Then, the film was cleaned three times by 10 mM Tris buffer solution (pH 7.4, TBS) including 0.8% NaCl. Then, the film was immersed in biotin-labeled lectin solution (2 µg/ml) and was shaken at a room temperature for one hour. Then, the film was cleaned three times by TBS. Then, the film was immersed in the HRP label streptavidin solution at 1 µg/ml (Vector Laboratories) and was shaken at a room temperature for 30 minutes. After the film was cleaned three times by TBS, a POD immunostain set (Wako Pure Chemical Industries, Ltd.) was used to perform a staining test. The staining test is to detect glycoprotein by the western blotting using biotin-labeled lectin. FIG. 13 to FIG. 17 are photographs showing the following glycoproteins stained by PTL (FIG. 13), SRL (FIG. 14), AAL (FIG. 15), AOL (FIG. 16), or LCA (FIG. 17).

Thyroglobulin (pig) = Thyroglobulin (pig) (pig, UniProt F1RRV3 20-2692, L-fucose α1→6 N-linked glycans); assay: ELISA, glycoprotein coated, biotin-labeled lectin; thyroglobulin set to 100%; ⊚ = relative values of 120 to 80
Procedure: The glycoprotein and albumin as protein not including a sugar chain as a control were dissolved in 0.1 M carbonic acid buffer solution (pH 9.5) at 1 mg/ml. Then, the resultant solution was added to a microtiter plate (Nunc 439454) and was incubated at 4 degrees C. overnight. Then, the resultant solution was cleaned by 0.05% Tween/PBS three times. Thereafter, 1% BSA/PBS was added to wells and the solution was incubated at 37 degrees C. for one hour. Then, after the solution was cleaned by 0.05% Tween/PBS three times, biotin labeled-lectin appropriately diluted by 1% BSA/0.05% Tween/PBS was added to the wells and the solution was incubated at 37 degrees C. for one hour. […]
(§2) The reaction was stopped by 1 M phosphoric acid. Then, a microplate reader (MPR-A4i, TOSOH CORPORATION) was used to measure the absorbance at 450 nm. Based on this value, reaction value ([absorbance at 450 nm of a well for which glycoprotein was solid-phased to the plate and
In contrast with this, in the case of PTL of Example 1 and SRL of Example 2, only glycoprotein having sL-fucose α1→6 sugar chain is detected and a non-L-fucose α1→6 reacted]−[absorbance at 450 nm of a well for which glycoprotein was not solid-phased to the plate and reacted] was calculated. […]

Transferrin (human) = Transferrin (human) (human, UniProt P02787 20-698, N-linked glycans without L-fucose α1→6); assay: Western blotting, glycoprotein on PVDF stained with biotin-labeled lectin
Sequence of Transferrin (human) (P02787 20-698 limits assumed): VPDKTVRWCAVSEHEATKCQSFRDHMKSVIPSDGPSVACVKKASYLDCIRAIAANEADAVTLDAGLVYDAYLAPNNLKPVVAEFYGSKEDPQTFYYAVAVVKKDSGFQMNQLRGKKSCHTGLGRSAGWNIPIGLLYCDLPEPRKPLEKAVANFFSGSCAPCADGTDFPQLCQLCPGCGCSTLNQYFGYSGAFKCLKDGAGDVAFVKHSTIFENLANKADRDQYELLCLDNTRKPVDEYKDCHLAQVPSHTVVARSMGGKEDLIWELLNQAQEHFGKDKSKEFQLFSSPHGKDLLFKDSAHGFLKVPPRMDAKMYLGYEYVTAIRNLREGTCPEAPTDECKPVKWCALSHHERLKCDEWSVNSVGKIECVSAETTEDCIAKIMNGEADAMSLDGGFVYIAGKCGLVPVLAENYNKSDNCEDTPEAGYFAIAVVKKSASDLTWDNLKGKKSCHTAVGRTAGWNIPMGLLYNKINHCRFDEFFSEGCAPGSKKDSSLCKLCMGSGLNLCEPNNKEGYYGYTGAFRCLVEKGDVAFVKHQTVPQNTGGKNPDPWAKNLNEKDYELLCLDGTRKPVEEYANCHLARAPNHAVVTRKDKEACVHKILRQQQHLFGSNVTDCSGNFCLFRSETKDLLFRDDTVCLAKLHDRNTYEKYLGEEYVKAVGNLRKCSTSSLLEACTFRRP
Procedure: as §1

Invertase (yeast) = biological target: T1, Invertase (yeast) (yeast, UniProt P00724 20-532, high mannose-type sugar chains); assay: ELISA, glycoprotein coated, biotin-labeled lectin; relative value with thyroglobulin = 100%
T1 sequence (looked up): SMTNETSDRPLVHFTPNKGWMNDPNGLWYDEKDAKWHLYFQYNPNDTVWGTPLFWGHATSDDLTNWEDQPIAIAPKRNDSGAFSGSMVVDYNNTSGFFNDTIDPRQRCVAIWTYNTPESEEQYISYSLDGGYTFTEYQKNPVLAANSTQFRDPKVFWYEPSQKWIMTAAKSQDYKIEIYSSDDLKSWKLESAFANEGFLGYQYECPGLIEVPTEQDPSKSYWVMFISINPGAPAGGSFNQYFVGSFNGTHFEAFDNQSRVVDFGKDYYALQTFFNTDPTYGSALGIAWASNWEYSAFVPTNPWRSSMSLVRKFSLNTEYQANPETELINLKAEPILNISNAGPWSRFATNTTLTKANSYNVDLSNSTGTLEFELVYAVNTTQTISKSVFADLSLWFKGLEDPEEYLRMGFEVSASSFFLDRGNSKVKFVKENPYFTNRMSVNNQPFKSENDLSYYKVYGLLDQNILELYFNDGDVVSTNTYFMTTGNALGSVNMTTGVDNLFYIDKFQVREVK
Procedure: (§3) The glycoprotein and albumin as protein not including a sugar chain as a control were dissolved in 0.1 M carbonic acid buffer solution (pH 9.5) at 1 mg/ml. Then, the resultant solution was added to a microtiter plate (Nunc 439454) and was incubated at 4 degrees C. overnight. Then, the resultant solution was cleaned by 0.05% Tween/PBS three times. Thereafter, 1% BSA/PBS was added to wells and the solution was incubated at 37 degrees C. for one hour. Then, after the solution was cleaned by 0.05% Tween/PBS three times, biotin labeled-lectin appropriately diluted by 1% BSA/0.05% Tween/PBS was added to the wells and the solution was incubated at 37 degrees C. for one hour. After the solution was cleaned by 0.05% Tween/PBS three times, HRP labeled streptavidin solution diluted by 1% BSA/0.05% Tween/PBS was added to wells and the solution was incubated at 37 degrees C. for 30 minutes. After the solution was cleaned by 0.05% Tween/PBS three times, TMB Peroxidase substrate system (KPL) was added and the resultant solution was incubated at a room temperature for 10 minutes while light was being blocked.
as §2
(§4) […] reacted]−[absorbance at 450 nm of a well for which glycoprotein was not solid-phased to the plate and reacted] was calculated. Next, for each lectin, the interaction strength (relative value) to each glycoprotein was calculated based on an assumption that the glycoprotein (thyroglobulin) value was 100%. The calculation result is shown in Table 9 and FIG. 19 to FIG. 23.

Bovine serum albumin = biological target: T2, Bovine serum albumin (bovine, UniProt P02769 25-607); assay: as above
T2 construct: Control protein without a sugar chain; also called Bovine blood serum albumin; Blood serum albumin (bovine)
T2 sequence (P02769 25-607 limits assumed): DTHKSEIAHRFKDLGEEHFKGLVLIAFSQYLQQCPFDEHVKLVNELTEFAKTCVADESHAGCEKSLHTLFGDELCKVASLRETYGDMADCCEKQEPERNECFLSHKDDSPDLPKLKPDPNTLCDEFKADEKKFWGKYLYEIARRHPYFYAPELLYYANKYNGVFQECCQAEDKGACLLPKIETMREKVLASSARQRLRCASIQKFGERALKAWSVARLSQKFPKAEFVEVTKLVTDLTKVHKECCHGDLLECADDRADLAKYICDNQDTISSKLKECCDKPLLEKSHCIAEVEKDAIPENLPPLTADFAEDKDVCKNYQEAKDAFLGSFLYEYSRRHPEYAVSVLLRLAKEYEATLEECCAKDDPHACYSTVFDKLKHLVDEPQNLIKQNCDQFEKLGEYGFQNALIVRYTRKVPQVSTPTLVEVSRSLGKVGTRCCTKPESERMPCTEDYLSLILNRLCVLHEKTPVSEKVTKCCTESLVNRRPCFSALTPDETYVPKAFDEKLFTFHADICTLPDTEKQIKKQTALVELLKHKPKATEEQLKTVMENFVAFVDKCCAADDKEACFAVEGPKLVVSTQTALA
Procedure: as §3, §2, §4

Sequence of Aspergillus oryzae lectin (AOL) of Comparison Example 2 (Aspergillus oryzae) (Q8TGE0 whole entry): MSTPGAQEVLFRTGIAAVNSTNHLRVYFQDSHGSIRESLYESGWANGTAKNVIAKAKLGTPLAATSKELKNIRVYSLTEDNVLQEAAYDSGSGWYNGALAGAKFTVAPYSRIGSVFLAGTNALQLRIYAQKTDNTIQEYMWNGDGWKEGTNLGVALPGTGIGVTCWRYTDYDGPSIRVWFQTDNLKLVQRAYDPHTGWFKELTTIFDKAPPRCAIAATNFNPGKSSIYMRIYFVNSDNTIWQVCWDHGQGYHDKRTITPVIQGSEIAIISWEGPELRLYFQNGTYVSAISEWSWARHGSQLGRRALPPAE

For Asialomucin (pig), the minimum inhibition concentration [1] was 31.3 µl/ml and the minimum inhibition concentration [2] was 62.5 µl/ml.

With “Stropharia rugosoannulata lectin (SRL) of Example 2” the reaction value (absorbance at 450 nm, blank subtracted) (absorbance at 450 nm) [3] was 1.62 and the reaction value (absorbance at 450 nm, blank subtracted) (absorbance at 450 nm) [4] was 0.031.

Work on “Aspergillus oryzae lectin (AOL) of Comparison Example 2” yielded a reaction value (absorbance at 450 nm, blank subtracted) (absorbance at 450 nm) [3] of 0.898 and a reaction value (absorbance at 450 nm, blank subtracted) (absorbance at 450 nm) [4] of 0.011.

Molecule “Aleuria aurantia lectin (AAL) of Comparison Example 1 (from UniProt P18891 2-313)” has a reaction value (absorbance at 450 nm, blank subtracted) (absorbance at 450 nm) [3] of 0.795.

With “Thyroglobulin (Table 3 and affinity column, species not stated)” the minimum inhibition concentration [5] was 62.5 µl/ml, the minimum inhibition concentration [1] was 125 µl/ml and the minimum inhibition concentration [6] was 250 µl/ml. It also gave a minimum inhibition concentration [7] of 250 µl/ml and a minimum inhibition concentration [8] of 62.5 µl/ml.

Mucin (pig) gave a minimum inhibition concentration [1] of 15.6 µl/ml and a minimum inhibition concentration [2] of 62.5 µl/ml.

Work on Asialofetuin yielded a minimum inhibition concentration [8] of 250 µl/ml.

Work on “Lens culinaris agglutinin (LCA) of Comparison Example 3 (from UniProt P02870 31-210; P02870 218-269)” yielded a reaction value (absorbance at 450 nm, blank subtracted) (absorbance at 450 nm) [3] of 0.455 and a reaction value (absorbance at 450 nm, blank subtracted) (absorbance at 450 nm) [4] of 0.01.

Molecule “Pholiota terrestris lectin (PTL) of Example 1” has a reaction value (absorbance at 450 nm, blank subtracted) (absorbance at 450 nm) [3] of 1.55.

B1: Aleuria aurantia lectin (AAL) of Comparison Example 1 (other, UniProt P18891 2-313, looked up)
chain: PTEFLYTSKIAAISWAATGGRQQRVYFQDLNGKIREAQRGGDNPWTGGSSQNVIGEAKLFSPLAAVTWKSAQGIQIRVYCVNKDNILSEFVYDGSKWITGQLGSVGVKVGSNSKLAALQWGGSESAPPNIRVYYQKSNGSGSSIHEYVWSGKWTAGASFGSTVPGTGIGATAIGPGRLRIYYQATDNKIREHCWDSNSWYVGGFSASASAGVSIAAISWGSTPNIRVYWQKGREELYEAAYGGSWNTPGQIKDASRPTPSLPDTFIAANSSGNIDISVFFQASGVSLQQWQWISGKGWSIGAVVPTGTPAGW
modifications: biotin-labeled in the Western blotting and ELISA experiments
notes: Bought lectin
B1: binds (Lactoferrin (bovine)); binds (Thyroglobulin (pig)); no binding (tested: biotin-labeled lectin 2 µg/ml) (Transferrin (human)). B1: no binding (tested: relative value 10 or less) (Invertase (yeast)); no binding (tested: relative value 10 or less) (Bovine serum albumin).

B2: Lens culinaris agglutinin (LCA) of Comparison Example 3 (other)
chain 1: TETTSFSITKFSPDQKNLIFQGDGYTTKGKLTLTKAVKSTVGRALYSTPIHIWDRDTGNVANFVTSFTFVIDAPSSYNVADEFTFFIAPVDTKPQTGGGYLGVFNSKEYDKTSQTVAVEFDTFYNAAWDPSNKERHIGIDVNSIKSVNTKSWNLQNGERANVVIAFNAATNVLTVTLTYP
chain 2: VTSYTLNEVVPLKDVVPEWVRIGFSATTGAEFAAHEVHSWSFHSELGGTSSS
modifications: biotin-labeled in the Western blotting and ELISA experiments
notes: Bought lectin
B2: no binding (tested: biotin-labeled lectin 2 µg/ml) (Transferrin (human)); no binding (tested: relative value 10 or less) (Bovine serum albumin).
